# Measured values from US8367815B2, “Modular polynucleotides for ligand-controlled regulatory systems” (California Institute of Technology, priority 2007, dated 2013).
# B1: shL: base shRNA targeting endogenous La protein; sequence in Table I (pCS1457) (nucleic acid)
# chain: GGATCCGGCTTCCCAACGATGATGCAACTCCTCGAGTCTAGAGGAGTTGCATCAGTTGGGAAGCCTTTTTTGGAAGCTT
# modifications: the letters are possibly those of the target site
# System: La protein
# Experiment: qRT-PCR of La protein mRNA from transfected HEK293T tTA-d2EGFP cells
# Format: cell-based
# Method: (A) qRT-PCR of La protein mRNA from HEK293T tTA-d2EGFP cells transfected in the presence (▪) or absence (□) of 1.5 mM theophylline. […] Error bars represent quadruplicate qRT-PCR measurements. (B) Curve fit to extrapolate empirical parameters C1-3. Dashed line marks knockdown achieved by base shRNA. (C) Model predictions for dynamic range using empirical parameter values for the GFP experiments along with fshRNA=0.6 and e=0.72 (gray curve) and extrapolated values from the La experiments (black curve). (D) Relationship between dynamic range (η) and the free energy difference. The dashed line represents the apparent increase in La mRNA levels upon theophylline addition observed for the base shRNA (shL).
# To examine the generality of shRNA switch design and functionality, Applicants designed a set of shRNA switches targeting the endogenous La protein. Following selection of an shRNA sequence that yields moderate knockdown of La as ascertained by qRT-PCR, various switching strand sequences covering a range of ΔG values were combined with the smaller theophylline aptamer to yield six shRNA switches (L1-6). […] As observed for the GFP-targeting shRNA switches, use of the stems method provided a suitable correlation between basal levels and ΔGmethod. Supplying the model with fit values for C1-3 yielded a predicted dynamic range trend that closely matched the experimental data. […]
molecule,measurement,setting,value
B1,response of La mRNA levels to theophylline,1.5 mM theophylline,not observed
same,fshRNA (La experiments),relative knockdown of La by base shRNA,0.6
